How the values were obtained:
Test in all cases: ELISA; semi-quantitative; plate coated with 30 nM protein (GST-tagged cohesin) in 0.1 M Na2CO3 pH 9.6 at 4 °C; His6-tagged dockerin 10 pM-1 μM in TBS with 1 mM CaCl2 and 1% BSA, 1 h, room temperature; anti-6xHis and HRP secondary antibody; fit with Hill equation
[1] = biological target: BSA (bovine (from the name BSA)) (UniProt P02769)
[2] = biological target: GST-Cohwt (from plasmid pGEX-Cohwt) (Clostridium thermocellum) (UniProt Q06851)
[3] = biological target: GST-Coh1 (from plasmid pGEX-Coh1) (Clostridium thermocellum)

UniProt P02769, sequence (P02769 25-607): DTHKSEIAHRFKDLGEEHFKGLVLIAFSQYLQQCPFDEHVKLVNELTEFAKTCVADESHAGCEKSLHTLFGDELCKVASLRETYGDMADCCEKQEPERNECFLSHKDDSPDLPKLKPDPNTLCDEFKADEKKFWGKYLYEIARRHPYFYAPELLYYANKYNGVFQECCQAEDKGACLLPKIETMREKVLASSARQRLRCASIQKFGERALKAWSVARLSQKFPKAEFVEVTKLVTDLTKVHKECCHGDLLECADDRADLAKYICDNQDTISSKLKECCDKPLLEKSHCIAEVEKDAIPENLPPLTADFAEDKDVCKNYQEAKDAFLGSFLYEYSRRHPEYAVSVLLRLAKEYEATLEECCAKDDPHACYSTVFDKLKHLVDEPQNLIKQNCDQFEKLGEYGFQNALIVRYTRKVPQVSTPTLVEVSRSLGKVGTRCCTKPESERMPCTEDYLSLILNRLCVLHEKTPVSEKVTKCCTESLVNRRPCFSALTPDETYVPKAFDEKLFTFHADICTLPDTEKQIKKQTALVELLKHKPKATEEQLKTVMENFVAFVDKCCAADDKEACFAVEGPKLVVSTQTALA

Substance: MBP-X6b-Docwt-His6 (from plasmid pMAL-Docwt) (from UniProt P51584 733-791) (domain or fragment)
- Kd [1]: > 1000 nM
- Kd [2]: 0.77 nM
- Kd [3]: > 500 nM

From publication PMC5772552
